For one substance, stoichiometry N results are on record in article PMC6712498.

For this experiment, the target named is Gaussia princeps luciferase (Gluc)-LiDps fusion protein (Gaussia princeps | Listeria innocua). The experiment is described as follows: native gel or EMSA + other: TEM; purified refolded Gluc-LiDps; native gel with HuAFn and LiDps as molecular weight markers, and morphological characterization by TEM.

“Gaussia princeps luciferase (Gluc)-LiDps fusion protein”: the stoichiometry N turned out to be 12 subunits.
